Our source for the Kd values is PMC5760199, “Structural insights into the assembly and polyA signal recognition mechanism of the human CPSF complex”.

Series [1] concerns the target CPSF160FL;WDR33 M1-K410;CPSF30 ZF1-3 (Homo sapiens;Homo sapiens;Homo sapiens, UniProt Q10570;Q9C0J8;O95639-3 1-1443;1-410;1-117, ||). Description: fluorescence polarization; 20 mM Tris pH 7.5, 150 mM NaCl, 1 mM DTT, 0.05% Tween 20, 25 C, 0.1 nM labelled RNA. The settings on record: protein: recombinant;recombinant;recombinant; tags: His6 (438B vector; Ni-NTA and Streptactin purified);; copies: 1;1;1; label: 5' Atto532. (Polarisation of emitted light reports the rotation of a fluorescent probe.)

Series [2] addresses CPSF160FL;WDR33 M1-K410;CPSF30 ZF1-5;Fip1CD (Homo sapiens;Homo sapiens;Homo …, UniProt Q10570;Q9C0J8;O95639-3;Q6UN15-4 1-1443;1-410;1-169;130-195, |||). Described as above. The settings on record: protein: recombinant;recombinant;recombinant;recombinant; tags: His6 (438B vector; Ni-NTA and Streptactin purified);;; copies: 1;1;1;1; label: 5' Atto532.
Series [3] deals with T1, CPSF160FL;WDR33 M1-K410;CPSF30FL;Fip1FL (Homo sapiens;Homo sapiens;Homo …, UniProt Q10570;Q9C0J8;O95639-3;Q6UN15-4 1-1443;1-410;1-243;1-378, |||). Description: fluorescence polarization; two repeats; 20 mM Tris pH 7.5, 150 mM NaCl, 1 mM DTT, 0.05% Tween 20, 25 C, 0.1 nM labelled RNA. The note with it: protein: recombinant;recombinant;recombinant;recombinant; tags: His6 (438B vector; Ni-NTA and Streptactin purified);;; copies: 1;1;1;1; label: 5' Atto532.

Series [4] concerns the target CPSF160FL;WDR33 M1-K410 R49A/K50A;CPSF30 ZF1-3 (Homo sapiens;Homo sapiens;Homo sapiens, UniProt Q10570;Q9C0J8;O95639-3 1-1443;1-410;1-117, |R49A;K50A|). Description: fluorescence polarization; 20 mM Tris pH 7.5, 150 mM NaCl, 1 mM DTT, 0.05% Tween 20, 25 C, 0.1 nM labelled RNA. The settings on record: protein: recombinant;recombinant;recombinant; tags: His6 (438B vector); copies: 1;1;1; label: 5' Atto532.

Series [5] concerns the target CPSF160FL;WDR33 M1-K410 K46A/R47A;CPSF30 ZF1-3 (Homo sapiens;Homo sapiens;Homo sapiens, UniProt Q10570;Q9C0J8;O95639-3 1-1443;1-410;1-117, |K46A;R47A|). The series is described as above. The note with it: protein: recombinant;recombinant;recombinant; tags: His6 (438B vector); copies: 1;1;1; label: 5' Atto532.
The target in series [6] is T1, CPSF160FL;WDR33 M1-K410;CPSF30FL;Fip1FL. Description: fluorescence polarization; error 0.09 in text, 0.90 in Table 2; 20 mM Tris pH 7.5, 150 mM NaCl, 1 mM DTT, 0.05% Tween 20, 25 C, 0.1 nM labelled RNA. The note with it: protein: recombinant;recombinant;recombinant;recombinant; tags: His6 (438B vector; Ni-NTA and Streptactin purified);;; copies: 1;1;1;1; label: 5' Atto532.

Broadly, the Kd is a measure of binding affinity in units of concentration.

CPSF160FL;WDR33 M1-K410;CPSF30 ZF1-5;Fip1CD, sequence (Q10570 whole entry, chain 1 of 4): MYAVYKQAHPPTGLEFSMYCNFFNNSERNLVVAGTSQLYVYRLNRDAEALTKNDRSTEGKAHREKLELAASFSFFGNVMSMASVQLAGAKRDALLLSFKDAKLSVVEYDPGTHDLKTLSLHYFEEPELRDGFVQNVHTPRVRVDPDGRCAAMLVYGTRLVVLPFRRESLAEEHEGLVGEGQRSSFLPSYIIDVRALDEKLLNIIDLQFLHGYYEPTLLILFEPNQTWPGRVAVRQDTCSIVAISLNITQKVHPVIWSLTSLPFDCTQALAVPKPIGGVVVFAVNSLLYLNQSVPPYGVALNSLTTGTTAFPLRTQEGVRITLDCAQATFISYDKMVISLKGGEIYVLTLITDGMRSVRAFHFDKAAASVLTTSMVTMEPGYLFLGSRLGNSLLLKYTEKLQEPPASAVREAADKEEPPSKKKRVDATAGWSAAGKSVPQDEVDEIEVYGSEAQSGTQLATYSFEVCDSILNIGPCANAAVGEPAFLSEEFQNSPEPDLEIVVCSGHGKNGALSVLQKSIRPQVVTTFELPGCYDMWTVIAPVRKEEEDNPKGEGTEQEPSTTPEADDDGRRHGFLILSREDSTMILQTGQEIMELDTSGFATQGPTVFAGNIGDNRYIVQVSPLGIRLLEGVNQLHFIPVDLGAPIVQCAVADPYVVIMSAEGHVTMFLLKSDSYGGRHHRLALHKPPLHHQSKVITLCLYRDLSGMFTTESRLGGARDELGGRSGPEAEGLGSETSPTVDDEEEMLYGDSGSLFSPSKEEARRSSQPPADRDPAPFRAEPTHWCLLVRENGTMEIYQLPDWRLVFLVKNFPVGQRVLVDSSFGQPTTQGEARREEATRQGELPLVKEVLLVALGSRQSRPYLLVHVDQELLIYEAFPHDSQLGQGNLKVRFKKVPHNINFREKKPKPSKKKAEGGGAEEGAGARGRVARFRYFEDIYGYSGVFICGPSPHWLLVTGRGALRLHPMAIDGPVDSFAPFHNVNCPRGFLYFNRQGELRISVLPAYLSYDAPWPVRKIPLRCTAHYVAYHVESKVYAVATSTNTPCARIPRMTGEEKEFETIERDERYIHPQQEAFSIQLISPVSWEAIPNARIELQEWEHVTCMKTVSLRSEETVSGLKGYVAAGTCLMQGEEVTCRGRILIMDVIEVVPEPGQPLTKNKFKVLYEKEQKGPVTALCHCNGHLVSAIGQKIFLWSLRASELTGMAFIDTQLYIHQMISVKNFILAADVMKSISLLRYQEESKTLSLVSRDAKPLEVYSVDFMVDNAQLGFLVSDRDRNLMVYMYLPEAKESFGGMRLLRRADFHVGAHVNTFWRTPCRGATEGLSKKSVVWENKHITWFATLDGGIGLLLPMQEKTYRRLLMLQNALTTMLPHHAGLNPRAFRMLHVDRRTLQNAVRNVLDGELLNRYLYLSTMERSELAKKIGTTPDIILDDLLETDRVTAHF
CPSF160FL;WDR33 M1-K410;CPSF30 ZF1-5;Fip1CD, sequence (Q9C0J8 1-410, chain 2 of 4): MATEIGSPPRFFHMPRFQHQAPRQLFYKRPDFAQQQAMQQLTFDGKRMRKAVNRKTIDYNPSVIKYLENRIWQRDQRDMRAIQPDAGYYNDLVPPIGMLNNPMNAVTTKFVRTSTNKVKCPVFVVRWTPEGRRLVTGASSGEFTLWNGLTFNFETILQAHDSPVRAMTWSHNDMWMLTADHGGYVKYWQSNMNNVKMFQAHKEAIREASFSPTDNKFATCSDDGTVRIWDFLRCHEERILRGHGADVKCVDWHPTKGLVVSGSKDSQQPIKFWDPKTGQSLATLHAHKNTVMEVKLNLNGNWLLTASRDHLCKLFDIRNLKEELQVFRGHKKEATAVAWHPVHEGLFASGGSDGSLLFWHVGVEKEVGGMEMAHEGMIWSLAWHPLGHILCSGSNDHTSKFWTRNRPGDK
CPSF160FL;WDR33 M1-K410;CPSF30 ZF1-5;Fip1CD, sequence (O95639 1-169, chain 3 of 4): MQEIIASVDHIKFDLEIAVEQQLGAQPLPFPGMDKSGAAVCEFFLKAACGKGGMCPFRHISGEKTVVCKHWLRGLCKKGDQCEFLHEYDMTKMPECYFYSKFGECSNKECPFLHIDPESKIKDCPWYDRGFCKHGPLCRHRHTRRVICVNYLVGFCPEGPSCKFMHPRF
CPSF160FL;WDR33 M1-K410;CPSF30 ZF1-5;Fip1CD, sequence (Q6UN15 145-210, chain 4 of 4): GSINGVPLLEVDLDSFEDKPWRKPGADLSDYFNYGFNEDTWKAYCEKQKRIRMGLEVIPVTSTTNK
CPSF160FL;WDR33 M1-K410;CPSF30 ZF1-3, sequence (Q10570 whole entry, chain 1 of 3): as the sequence (Q10570 whole entry, chain 1 of 4) above
CPSF160FL;WDR33 M1-K410;CPSF30 ZF1-3, sequence (Q9C0J8 1-410, chain 2 of 3): as the sequence (Q9C0J8 1-410, chain 2 of 4) above
CPSF160FL;WDR33 M1-K410;CPSF30 ZF1-3, sequence (O95639 1-117, chain 3 of 3): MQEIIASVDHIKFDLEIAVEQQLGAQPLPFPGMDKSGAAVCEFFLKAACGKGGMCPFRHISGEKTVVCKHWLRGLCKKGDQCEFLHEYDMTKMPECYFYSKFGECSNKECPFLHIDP
T1 sequence (Q10570 whole entry, chain 1 of 4): as the sequence (Q10570 whole entry, chain 1 of 4) above
T1 sequence (Q9C0J8 1-410, chain 2 of 4): as the sequence (Q9C0J8 1-410, chain 2 of 4) above
T1 sequence (O95639 other isoform, or with tags, fused parts or gaps |||, chain 3 of 4): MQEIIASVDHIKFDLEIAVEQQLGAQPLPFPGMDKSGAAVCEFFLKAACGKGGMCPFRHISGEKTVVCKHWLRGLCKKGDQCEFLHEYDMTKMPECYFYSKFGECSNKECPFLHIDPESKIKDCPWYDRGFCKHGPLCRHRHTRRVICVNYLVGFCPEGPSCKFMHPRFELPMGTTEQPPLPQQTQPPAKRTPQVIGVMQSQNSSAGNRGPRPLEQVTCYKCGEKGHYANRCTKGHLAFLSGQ
T1 sequence (Q6UN15 other isoform, or with tags, fused parts or gaps |||, chain 4 of 4): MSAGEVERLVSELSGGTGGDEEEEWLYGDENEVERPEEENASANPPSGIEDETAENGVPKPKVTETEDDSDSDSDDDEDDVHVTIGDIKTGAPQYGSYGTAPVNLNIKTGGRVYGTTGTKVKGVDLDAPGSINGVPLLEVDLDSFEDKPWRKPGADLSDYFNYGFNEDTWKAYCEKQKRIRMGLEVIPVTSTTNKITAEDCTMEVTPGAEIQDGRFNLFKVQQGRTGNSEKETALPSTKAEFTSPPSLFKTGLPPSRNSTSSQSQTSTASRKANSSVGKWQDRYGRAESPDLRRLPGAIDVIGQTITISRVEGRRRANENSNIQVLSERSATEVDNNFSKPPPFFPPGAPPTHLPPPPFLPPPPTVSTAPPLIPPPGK
CPSF160FL;WDR33 M1-K410 K46A/R47A;CPSF30 ZF1-3, sequence (Q10570 whole entry, chain 1 of 3): as the sequence (Q10570 whole entry, chain 1 of 4) above
CPSF160FL;WDR33 M1-K410 K46A/R47A;CPSF30 ZF1-3, sequence (Q9C0J8 1-410 K46A/R47A, chain 2 of 3): as the sequence (Q9C0J8 1-410, chain 2 of 4) above, with K46A, R47A counted along it
CPSF160FL;WDR33 M1-K410 K46A/R47A;CPSF30 ZF1-3, sequence (O95639 1-117, stated change not applied, chain 3 of 3): as the sequence (O95639 1-117, chain 3 of 3) above
CPSF160FL;WDR33 M1-K410 R49A/K50A;CPSF30 ZF1-3, sequence (Q10570 whole entry, chain 1 of 3): as the sequence (Q10570 whole entry, chain 1 of 4) above
CPSF160FL;WDR33 M1-K410 R49A/K50A;CPSF30 ZF1-3, sequence (Q9C0J8 1-410 R49A/K50A, chain 2 of 3): as the sequence (Q9C0J8 1-410, chain 2 of 4) above, with R49A, K50A counted along it
CPSF160FL;WDR33 M1-K410 R49A/K50A;CPSF30 ZF1-3, sequence (O95639 1-117, chain 3 of 3): as the sequence (O95639 1-117, chain 3 of 3) above

Consider CACACAAGAAAGGCAA (ssRNA) [L3 PAS RNA mutant (AAGAAA)], for which the values for the Kd in series [1], in series [2] and in series [3] were 43 ± 2 nM, 70 ± 6 nM and 120 ± 23 nM, respectively.

As for CACACAAUAAAGGCAA (ssRNA) [L3 PAS RNA wild-type (AAUAAA)], the Kd in series [1] was less than 0.1 nM; in series [2], 0.11 ± 0.03 nM; in series [4], 2.42 ± 0.66 nM; in series [5] it was 7.78 ± 0.78 nM; in series [6] it was 0.65 ± 0.09 nM.
